# Measured values reported in patent US20140234868A1, “USE FOR GLYCOLIPOPROTEIN GINTONIN, ISOLATED AND IDENTIFIED FROM GINSENG, AS A NATURAL MEDICAL-PLANT DERIVED LIGAND” (KONKUK UNIVERSITY INDUSTRIAL COOPERATION CORP., priority 2011, published 2014).
# Target: T1, LPA6 receptor (Homo sapiens, UniProt P43657)
# T1 construct: host or cells: B103 rat neuroblastoma cells
# T1 sequence (P43657 1-344): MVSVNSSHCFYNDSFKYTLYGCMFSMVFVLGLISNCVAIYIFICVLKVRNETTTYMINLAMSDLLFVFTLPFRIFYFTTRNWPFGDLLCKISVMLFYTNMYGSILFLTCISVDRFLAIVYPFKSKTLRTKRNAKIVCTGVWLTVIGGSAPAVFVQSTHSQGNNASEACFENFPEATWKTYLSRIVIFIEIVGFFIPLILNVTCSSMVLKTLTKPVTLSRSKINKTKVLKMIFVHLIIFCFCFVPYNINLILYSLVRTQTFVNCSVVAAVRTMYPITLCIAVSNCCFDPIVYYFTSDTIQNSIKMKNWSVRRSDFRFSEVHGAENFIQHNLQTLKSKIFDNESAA
# Experiment: Intracellular free Ca2+ (Fura-2AM) in LPA6-expressing B103 cells
# Assay type: cell-based
# Source text: LPA family receptors are endogenous to cells of most organs. B103 rat neuroblastoma cells, known as LPA receptor-null cells (Valentine et al., Biochim Biophys Acta 1780. 597-605) were transiently transfected with a plasmid (vector) carrying one of genes coding for LPA1(edg-2), LPA2(edg-4), LPA3(edg-7), LPA4, LPA5 and LPA6 receptors or a plasmid carrying none of them (empty vector). Two or three days after transfection, the cells are suspended, and made permeable. Then, the permeable cells are treated with Fura-2AM, a fluorescent dye binding to calcium, and then with gintonin, followed by spectrofluorephotometry to examine whether gintonin induces an increase in intracellular free Ca^2+ level. […]
molecule,measurement,value
gintonin: ginseng-derived glycolipoprotein; structural protein of ginseng major latex-like protein (MLP151) and ribonuclease-like storage proteins; crude gintonin used in tests (protein) chain 1: MGLTGKLICQTGIKSDGDVFHELFGTRPHHVPNITPANIQGCDLHEGEFGKVGSVVIWNYSIDGNAMIAKEEIVAIDEEDKSVTFKVVEGHLFEEFKSIVFSVHVDTKGEDNLVTWSIDYEKLNESVKDPTSYLDFLLSVTRDIEAHHLPK chain 2: RSDYPWAMFALRLQWPAGFCEVNNACDTKSLLNTFTIHGLYPYNAKGTPALYCDGTAFDVNSVSDFLAEMHLAWPSHETNTEDIQFWEHEWKKHGRCSEALLKQTDYFRTALAFRKAFDIVGLLNQEGIYPNNDLYRPKMIKEAIKKHLNAVPEIDFTKNENSEYVLTDINVCVNQQATRFVDCPTDDATDDYRLKFVRLPSKMKFADPRTNSII,gintonin activity on intracellular calcium level,No gintonin activity was detected
